Changes are numbered by the printed parent chain. One block for each binder: values may come before it.
Target: TSLP, Q969D9
Experiment: Kd (SPR)

B2: unnamed (protein)
chain 1: QMQLVESGGGVVQPGRSLRLSCAASGFTFSTFAMHWVRQAPGKGLEWVAVIWYDGSNKHYADSVKGRFTITRDNSKNTLNLQMNSLRAEDTAVYYCARAPRYDEHYEAFDVWGQGTMVTVSS
chain 2: SYVLTQPPSVSVAPGQTARITCGGNNLGSKSVHWYQQKPGQAPVLVVYDDSDRPSWIPERFSGSNSGNTATLTISRGEAGDEADYYCQVWDSSSDHVVFGGGTKLTVL
- Kd: 777 nM

B3: unnamed (protein)
chain 1: B2 chain 1 with F32Y, A99S, H105Y
chain 2: B2 chain 2
- Kd: 219 nM

B5: unnamed (protein)
chain 1: B2 chain 1 with D103Y, E104Y, H105Y
chain 2: B2 chain 2
- Kd: 208 nM

B6: unnamed (protein)
chain 1: B2 chain 1 with F32Y, H105Y
chain 2: B2 chain 2
- Kd: 224 nM

B9: unnamed (protein)
chain 1: B2 chain 1 with F32Y, H105Y, Y106V
chain 2: B2 chain 2
- Kd: 195 nM

B17: unnamed (protein)
chain 1: B2 chain 1 with D103Y, E104D, H105Y, Y106W
chain 2: B2 chain 2
- Kd: 221 nM

B18: unnamed (protein)
chain 1: B2 chain 1 with E104D, H105R
chain 2: B2 chain 2
- Kd: 490 nM

B19: unnamed (protein)
chain 1: B2 chain 1 with H105Y, Y106W
chain 2: B2 chain 2
- Kd: 764 nM

The next binders have a lower Kd than those just listed; values first:

- Kd: 80.5 nM
B1: unnamed (protein)
chain 1: B2 chain 1 with A99S, E104D, H105Y, Y106L
chain 2: B2 chain 2

- Kd: 106 nM
B4: unnamed (protein)
chain 1: B2 chain 1 with D103Y, H105Y
chain 2: B2 chain 2

- Kd: 41.8 nM
B7: unnamed (protein)
chain 1: B2 chain 1 with A99S, D103Y, E104D, H105Y
chain 2: B2 chain 2

- Kd: 188 nM
B8: unnamed (protein)
chain 1: B2 chain 1 with E104D, H105L
chain 2: B2 chain 2

- Kd: 157 nM
B10: unnamed (protein)
chain 1: B2 chain 1 with E104W, H105Y, Y106L
chain 2: B2 chain 2

- Kd: 184 nM
B11: unnamed (protein)
chain 1: B2 chain 1 with F32Y, H105D
chain 2: B2 chain 2

- Kd: 186 nM
B12: unnamed (protein)
chain 1: B2 chain 1 with T31S, H105Y
chain 2: B2 chain 2

- Kd: 112 nM
B13: unnamed (protein)
chain 1: B2 chain 1 with E104D, H105D
chain 2: B2 chain 2

- Kd: 188 nM
B14: unnamed (protein)
chain 1: B2 chain 1 with F32Y, E104D, H105L
chain 2: B2 chain 2

- Kd: 92.5 nM
B15: unnamed (protein)
chain 1: B2 chain 1 with E104D, H105Y
chain 2: B2 chain 2

- Kd: 57 nM
B16: unnamed (protein)
chain 1: B2 chain 1 with F32Y, A99S, D103Y, H105Y
chain 2: B2 chain 2

Reference: the FLAb antibody collection (doi:10.1101/2023.12.08.570889)
